The conditions of the data set: Escherichia coli; pH 6; 25 °C; Thermal; DSC; Sodium phosphate/Sodium sulfate 10 mM/10 mM/; reversible: yes; whole UniProt chain shown.

B1: Regulatory protein rop wild type, P03051 (protein)
chain: MTKQEKTALNMARFIRSQTLTLLEKLNELDADEQADICESLHDHADELYRSCLARFGDDGENL
For B1, the “heat capacity change of unfolding” value turned out to be 2.46 kcal/mol/K and the unfolding free energy turned out to be 17.1 kcal/mol.

Source of the values: FireProtDB (doi:10.1002/prot.340230110).
